These are literature values, as cited in PMC8553002 (Journal of Mass Spectrometry and Advances in the Clinical …, 2020).

The conditions of this series: insulin degraded by the liver, to a minor extent, kidneys.

Turning to “Insulin: hormone released with C-peptide from proinsulin in equimolar amounts”, the half-life was 3 to 5 min.

Usually half-life stands for the time in which the quantity being followed falls by half.
